The values below come from US5362864, “Trans-activating factor-1” (The Trustees of the Rockefeller University).

For data set [1], the target named is T1, truncated TAF-1 (p5a product from Met-22) (Nicotiana tabacum, UniProt Q99142 SEQ:1-244).
T1 sequence: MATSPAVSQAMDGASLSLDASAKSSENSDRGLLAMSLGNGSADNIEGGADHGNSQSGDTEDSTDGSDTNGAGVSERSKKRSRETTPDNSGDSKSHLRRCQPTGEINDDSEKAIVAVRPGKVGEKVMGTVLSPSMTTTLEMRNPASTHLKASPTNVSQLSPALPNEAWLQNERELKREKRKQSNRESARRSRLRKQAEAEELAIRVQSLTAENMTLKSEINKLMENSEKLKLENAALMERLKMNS
The data set is described as follows: competition; 60 ng gave about 50% competition; increased affinity also in direct EMSA. The conditions noted are these: tags: expressed from pSK(-) lacZ promoter in E. coli, ammonium sulfate fraction; chain copies: 2 (inferred). From the text:
(§1) FIG. 4A. TAF-1 preferentially binds to a perfect palindromic sequence. Tetramers of WT motif I, the mutant M1, and the perfect palindrome (PA), […], (SEQ. ID NO: 9) were used as probes in gel mobility shift-assays with E. coli extracts containing the truncated TAF-1. F, free probe; NC, non-specific complex. The specific complexes, indicated with arrowheads, have a slower mobility as compared to the non-specific complex. FIG. 4B. Relative binding affinities of TAF-1 to motif I (WT) and related sequences. WT motif I tetramer was used as a probe in gel mobility shift assays with E. coli extracts containing the truncated TAF-1. Different concentrations of tetramers of mutants M1 to M5, as well as the tetramer of the perfect palindromic sequence (PA) were tested for their ability to compete with the WT sequence for TAF-1. For WT, PA, M1 and M5, the concentrations that gave approximately 50% competition were used in the experiments shown here. Higher concentrations were used for mutants M2, M3 and M4. Comp., Competitor. FIG. 4C. Nucleotide sequences of WT (SEQ. ID NO: 11), mutants M1 to M5 (SEQ. ID NOS: 10, 13, 14, 15 and 12), and the perfect palindrome, PA (SEQ. ID NO: 9). In this figure, the WT motif I of the tetramer is shown with the TACGTG hexanucleotide as the core sequence. The 5' nucleotide G of the motif is derived from the 3' nucleotide of the preceding motif in the tetramer. […]
(In general: Mobility shift assays separate free from complexed probe on a gel.)

The target of data set [2] is T1, truncated TAF-1 (p5a product from …). Briefly: competition; self competition; direct EMSA complexes in FIG. 2D; poly(dI-dC). The conditions noted are these: tags: expressed from pSK(-) lacZ promoter in E. coli, ammonium sulfate fraction; chain copies: 2 (inferred); label: fill-in labelled.
Excerpt: as §1

Data set [3] has the same target. The data set is described as follows: competition; 3 ng gave about 50% competition against WT probe; 200 ng needed for WT; direct EMSA also stronger than WT (FIG. 4A). The settings on record: tags: expressed from pSK(-) lacZ promoter in E. coli, ammonium sulfate fraction; chain copies: 2 (inferred).
Excerpt: as §1

B1: M1 tetramer (dsDNA)
DNA 1: CAACGTGGCGCAACGTGGCGCAACGTGGCGCAACGTGGCG
DNA 2: CGCCACGTTGCGCCACGTTGCGCCACGTTGCGCCACGTTG
Consider B1, for which the binding signal in data set [1] amounted to 3.3 fold vs WT.

B2: motif I WT tetramer (dsDNA)
DNA 1: GTACGTGGCGGTACGTGGCGGTACGTGGCGGTACGTGGCG
DNA 2: CGCCACGTACCGCCACGTACCGCCACGTACCGCCACGTAC
In the case of B2, in data set [2], the IC50 is ~200 ng.

B3: PA perfect palindrome (G-box) tetramer (dsDNA)
DNA 1: GCCACGTGGCGCCACGTGGCGCCACGTGGCGCCACGTGGC
DNA 2: GCCACGTGGCGCCACGTGGCGCCACGTGGCGCCACGTGGC
With B3, the binding signal in data set [3] is ~66 fold vs WT.
